The values below come from paper PMC6713331.

In this test the target is FLAG-tagged BVLF1 (Epstein-Barr virus). In words: co-IP; FLAG-tagged BVLF1 as bait with BFRF2 together with BGLF3 or BGLF3(T42A) in 2089 cells; anti-FLAG M2 agarose; anti-Myc blot; quantitation from two independent experiments.

B1: BFRF2 (natural protein)
chain: MALFLARHTLSGTGAGCHGRGPAPDVSEVDLTLQALGERGFSRLLDLGLACLDLSYVEMREFVVWGRPPASEAAVASTPGSLFRSHSSAYWLSEVERPGGLVRWARSQTSPSSLTLAPHLGPSLLSLSVVTGGGCGAVAFCNAFFLAYFLVVRSVFPAFSDRIAAWICDRSPFCENTRAVARGYRGLVKRFLAFVFERSSYDPPLLRQNSRPVERCFAIKNYVPGLDSQSCVTVPSFSRWAQSHASELDPREIRDRVTPATAPSFVADHASALLASLQKKASDTPCGNPIQWMWYRLLVNSCLRSAHCLLPIPAVSEGGRKTGGGVGEELVGAGGPCLSRDVFVAIVSRNVLSCLLNVPAAGPRAYKCFRSHASRPVSGPDYPPLAVFCMDCGYCLNFGKQTGVGGRLNSFRPTLQFYPRDQKEKHVLTCHASGRVYCSNCGSAAVGCQRLAEPPSARSGWRPRIRAVLPHNAAYELDRGSRLLDAIIPCLGPDRTCMRPVVLRGVTVRQLLYLTLRTEARAVCSICQQRQAPEDARDEPHLFSSCLEVELPPGERCAGCRLYQTRYGTPAAQAHPPGEAGGGFSRQSPAS
On to B1, for which the fold increase of the BVLF1-BFRF2 interaction with wild type BGLF3 relative to no BGLF3 stood at 6 fold.
